Experiment [1] has as its target σ^s (RpoS), His-tagged (Escherichia coli) (UniProt P13445). Description: pull-down.
The target is the same in experiment [2]. Description: SEC. (Size exclusion chromatography separates by hydrodynamic size, large species first.)
A further experiment deals with σ^s (RpoS), His-tagged (Escherichia coli, UniProt P13445 1-330). Description: pull-down.
σ^s (RpoS), His-tagged, sequence (P13445 whole entry): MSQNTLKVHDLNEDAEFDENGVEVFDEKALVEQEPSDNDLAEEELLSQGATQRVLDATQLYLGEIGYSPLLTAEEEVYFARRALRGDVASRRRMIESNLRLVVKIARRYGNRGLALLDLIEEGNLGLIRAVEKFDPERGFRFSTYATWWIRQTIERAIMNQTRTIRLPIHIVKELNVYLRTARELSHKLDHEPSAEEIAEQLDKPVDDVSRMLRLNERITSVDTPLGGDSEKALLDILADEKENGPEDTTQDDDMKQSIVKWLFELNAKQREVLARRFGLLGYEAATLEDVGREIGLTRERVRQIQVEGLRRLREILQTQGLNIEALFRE

σ^s (RpoS), His-tagged (Escherichia coli), sequence (P13445 whole entry): as above

For the molecule “RssB (wild type, full length) (from UniProt P0AEV1 1-337) (natural protein)”, the fold increase in pull-down efficiency with beryllofluoride against without in experiment [1] was determined as 5 fold. Broadly, the stoichiometry N is a count of units in the complex or per binding partner. For “RssB∼P (RssB phosphorylated with acetyl phosphate) (from UniProt P0AEV1 1-337) (natural protein)”, the stoichiometry N in experiment [2] was 1 σ^s:RssB.

B1: RssB^F129A;S131A (natural protein, Escherichia coli)
chain: MTQPLVGKQILIVEDEQVFRSLLDSWFSSLGATTVLAADGVDALELLGGFTPDLMICDIAMPRMNGLKLLEHIRNRGDQTPVLVISATENMADIAKALRLGVEDVLLKPVKDLNRLREMVFACLYPSMANARVEEEERLFRDWDAMVDNPAAAAKLLQELQPPVQQVISHCRVNYRQLVAADKPGLVLDIAALSENDLAFYCLDVTRAGHNGVLAALLLRALFNGLLQEQLAHQNQRLPELGALLKQVNHLLRQANLPGQFPLLVGYYHRELKNLILVSAGLNATLNTGEHQVQISNGVPLGTLGNAYLNQLSQRCDAWQCQIWGTGGRLRLMLSAE
Regarding B1, the “percent of WT binding” value with σ^s (RpoS), His-tagged was ~50 % of WT.

The values above are taken from paper PMC10755785 (The Journal of Biological Chemistry, 2023).
